Article PMC9841335, “Structure of a bacterial ribonucleoprotein complex central to the control of cell envelope biogenesis” (The EMBO Journal, 2022)

B1: RNase E-NTD (residues 1-598, Δ568–582, D346C) (domain or fragment)
chain: not shown
notes: also called mutant RNase E‐NTD; RNase E catalytic domain; source: E. coli BL21(DE3), pET16 vector, purified (IMAC, butyl Sepharose, Superdex 200 SEC)

Assays:
[1] = target: B1; assay: cryo-EM structure; RNase E-NTD (D346C), full-length RapZ and full-length GlmZ RNA at 5:25:10 μM in 25 mM HEPES pH 7.5, 300 KCl, 1 mM MgCl2, cross-linked with 0.01% glutaraldehyde, Superose 6 SEC, graphene oxide-coated grids; binary RapZ:GlmZ and ternary classes from one dataset; details: both partners purified
[2] = target: the molecule itself; assay: as above
[3] = target: T1, RNase E-NTD (wild type, BACTH fusion) (E. coli, UniProt P21513 1-529); assay: two-hybrid; adenylate cyclase-based bacterial two-hybrid (BACTH) in E. coli BTH101, pKT25 (T25-RapZ) and pUT18C-type plasmids, LB with 1 mM IPTG, β-galactosidase activity; endogenous GlmZ present in the cell; details: partners not purified
T1 construct: RNase E, E. coli, N-terminal catalytic domain (NTD); The text calls the two-hybrid partner 'RNase E' and its variants 'RNase E‐NTD variants'; also called RNase E wild type; source: bacterial two-hybrid fusion (pUT18C-type plasmid) in E. coli BTH101

stoichiometry N [1] | fold decrease of the BACTH signal against wild-type RapZ [3] | Binder | stoichiometry N [2]
2 RapZ tetramers per RNase E-NTD tetramer |  | RapZ (full-length, purified recombinant) (natural protein, E. coli, UniProt P0A894 1-284, looked up, The Strep-tag is cleavable by TEV protease; Construct and procedure follow Gonzalez et al, 2017; In all complexes with RNase E-NTD the sRNA GlmZ was present; also called RapZ tetramer; full‐length RapZ; source: E. coli Rosetta, plasmid pMCSG7, purified (Strep Trap HP, Superdex 200 SEC)) MVLMIVSGRSGSGKSVALRALEDMGFYCVDNLPVVLLPDLARTLADREISAAVSIDVRNMPESPEIFEQAMSNLPDAFSPQLLFLDADRNTLIRRYSDTRRLHPLSSKNLSLESAIDKESDLLEPLRSRADLIVDTSEMSVHELAEMLRTRLLGKRERELTMVFESFGFKHGIPIDADYVFDVRFLPNPHWDPKLRPMTGLDKPVAAFLDRHTEVHNFIYQTRSYLELWLPMLETNNRSYLTVAIGCTGGKHRSVYIAEQLADYFRSRGKNVQSRHRTLEKRKP | 4
 | 2 fold | T25-RapZ 4 substitutions (T161A, Y240A, N271A, Q273A; BACTH fusion) (natural protein, E. coli, UniProt P0A894 1-284, looked up, RapZ, E. coli, with alanine substitutions of Q273, N271, Y240 and T161; source: bacterial two-hybrid fusion (pKT25 plasmid) in E. coli BTH101) MVLMIVSGRSGSGKSVALRALEDMGFYCVDNLPVVLLPDLARTLADREISAAVSIDVRNMPESPEIFEQAMSNLPDAFSPQLLFLDADRNTLIRRYSDTRRLHPLSSKNLSLESAIDKESDLLEPLRSRADLIVDTSEMSVHELAEMLRTRLLGKRERELAMVFESFGFKHGIPIDADYVFDVRFLPNPHWDPKLRPMTGLDKPVAAFLDRHTEVHNFIYQTRSYLELWLPMLETNNRSALTVAIGCTGGKHRSVYIAEQLADYFRSRGKAVASRHRTLEKRKP | 
 |  | B1 | 4
